Reference: patent US20070031511A1, “Method of treatment” (priority 2003, published 2007)

Molecular target: Ggly receptor on IMGE-5 cells
Assay: cell-based or functional assay

- ED50 (nM), proliferation of IMGE cells, thymidine uptake: 1.4 nM
Substance: pentapeptide E5
